Experimental data reported in publication PMC7863765 (Journal of Molecular Biology, 2021).

Biological target: the molecule itself
Assay: SEC-MALS

B1: untagged full-length human 14-3-3γ (natural protein, UniProt P61981 1-247, looked up)
chain: MVDREQLVQKARLAEQAERYDDMAAAMKNVTELNEPLSNEERNLLSVAYKNVVGARRSSWRVISSIEQKTSADGNEKKIEMVRAYREKIEKELEAVCQDVLSLLDNYLIKNCSETQYESKVFYLKMKGDYYRYLAEVATGEKRATVVESSEKAYSEAHEISKEHMQPTHPIRLGLALNYSVFYYEIQNAPEQACHLAKTAFDDAIAELDTLNEDSYKDSTLIMQLLRDNLTLWTSDQQDDDGGEGNN
notes: human 14-3-3 protein gamma, full length, untagged
  stoichiometry N: 2
